These results are taken from patent publication US20250163167A1 (SYNTHEKINE, published 2025).

The target in assay [1] is T1, hIL10Rb-his (Sino Biological, Catalog#10945) (human, UniProt Q08334 20-220).
T1 construct: Bought; also called Sino Biological cat#10945-H08H; not shown: C-terminal poly-His tag
T1 sequence: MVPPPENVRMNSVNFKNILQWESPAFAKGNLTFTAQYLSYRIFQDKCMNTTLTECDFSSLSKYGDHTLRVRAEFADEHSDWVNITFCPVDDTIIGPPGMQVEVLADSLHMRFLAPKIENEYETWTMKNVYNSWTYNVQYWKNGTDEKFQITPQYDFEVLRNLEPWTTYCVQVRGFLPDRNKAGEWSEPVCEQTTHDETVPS
Put plainly: SPR; ratio of experimental to calculated Rmax.

Assay [2] addresses T1, hIL10Rb-his (Sino Biological, …). Put plainly: SPR Biacore T200; mono-Fc VHH captured on Protein A chip, hIL10Rb-his analyte; 1:1 Langmuir fit. A general note: In SPR one partner is held on a chip, and binding of the other changes the refractive index at the surface.
Assay [3] has the same target. Briefly: SPR Biacore T200; mono-Fc VHH captured on Protein A chip, hIL10Rb-his analyte; 1:1 Langmuir fit (row flagged: inaccurate fit). The source says: To confirm and evaluate binding affinities of the binding of the hIL10Rb sdAbs, a representative example from each clonotype generated was selected for evaluation of binding via SPR. […] RMAX<100 RU indicates surface density compatible with kinetics analysis. Calculated Rmax values were generated using the equation: Rmax=Load (RU)×valency of ligand×(Molecular weight of analyte/Molecular weight of ligand). Surface activity was defined as the ratio of experimental/calculated Rmax.
One representative example from each clonotype of IL10a generated in accordance with Examples 1-3 was selected for evaluation of binding via SPR as follows. […] All experiments were conducted in 10 mM Hepes, 150 mM NaCl, 0.05% (v/v) Polysorbate 20 (PS20) and 3 mM EDTA (HBS-EP+ buffer) on a Biacore T200 instrument equipped with a Protein A derivatized sensor chip (Cytiva). Mono-Fc VHH ligands were flowed at 5 μl/min for variable time ranging from 18 to 300 seconds, reaching the capture loads listed in the tables below. Following ligand capture, injections of a 2-fold dilution series of the extracellular domain of the […] modified to incorporate a C-terminal poly-His sequence, typically comprising at least five concentrations between 1 μM and 1 nM, were performed in either high performance or single cycle kinetics mode. Surface regeneration was achieved by flowing 10 mM glycine-HCl, pH 1.5 (60 seconds, 50 μL/min).

Assay [4] has the same target. Put plainly: SPR Biacore T200; biotinylated dual VHH captured on CAP biotin chip, hIL10Rb-his analyte; 1:1 Langmuir fit.
For assay [5], the target named is T2, hIL10Ra-his (Sino Biological, Catalog#10419) (human, UniProt Q13651 22-235).
T2 construct: Bought; also called Sino Biological cat#10419-H08H; not shown: C-terminal poly-His tag
T2 sequence: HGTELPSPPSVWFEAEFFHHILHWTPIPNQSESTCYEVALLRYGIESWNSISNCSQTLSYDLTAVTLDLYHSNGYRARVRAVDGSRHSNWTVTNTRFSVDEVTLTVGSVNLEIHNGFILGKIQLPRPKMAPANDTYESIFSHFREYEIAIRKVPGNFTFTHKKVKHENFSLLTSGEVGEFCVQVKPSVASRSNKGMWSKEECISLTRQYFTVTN
Briefly: SPR Biacore T200; biotinylated dual VHH captured on CAP biotin chip, hIL10Ra-his analyte; 1:1 Langmuir fit.

Assay [6] addresses T1, hIL10Rb-his (Sino Biological, …). Briefly: SPR; ratio of experimental to calculated Rmax. The source holds these as a separate data set.
Assay [7] deals with T2, hIL10Ra-his (Sino Biological, …). Put plainly: SPR Biacore T200; biotinylated dual VHH captured on CAP biotin chip, hIL10Ra-his analyte; kon, koff and Rmax printed N/A.

B1: hIL-10Rb_VHH26 Mono-Fc (Fc fusion)
chain: QVQLQESGGGSVQAGGSLRLSCAASGYSYSSYCMGWFRQAPGKEREGVATIDSDGMTRYADSVKGRFTISKDNAKNTLYLQMNSLKPEDTAMYYCAAPLYDCDSGAVGRNPPYWGQGTQVTVSS
notes: Mono-Fc VHH captured on Protein A; not shown: mono-Fc part
As to B1, in assay [1], the “Surface Activity” value is 54%. Besides, in assay [2], the Kd (commonly the equilibrium constant for the complex coming apart) was determined as 314 nM, the koff (usually the rate constant with which the complex falls apart) came to 0.0213 s⁻¹ and the kon (usually the second-order rate constant of association) stood at 67800 M⁻¹ s⁻¹.

B2: hIL-10Rb_VHH16 Mono-Fc (Fc fusion)
chain: QVQLQESGGGSVEAGGSLRLSCAASGYTHSSYCMGWFRQAPGKEREGVAAIDVDGSTTYADSVKGRFTISKDNAKNTLYLQMNSLKPEDTGMYYCAAEFADCSSNYFLPPGAVRYWGQGTQVTVSS
notes: as for B1
Consider B2, for which, in assay [3], binding was put at a Kd of 7540 nM, the koff was found to be 0.0221 s⁻¹ and the on-rate constant (kon) worked out at 2930 M⁻¹ s⁻¹.

B3: hIL-10Rb_VHH15 Mono-Fc (Fc fusion)
chain: QVQLQESGGGSVQAGGSLRLSCTVSRYTASVNYMGWFRQAPGKEREGVATIFTGAGTTYYANSVKGRFTISRDNAKNTAYLQMNSLKPEDTAIYYCAVDFRGGLLYRPAYEYTYRGQGTQVTVSS
notes: as for B1
For the molecule B3, in assay [1], the “Surface Activity” value was 18%. In assay [2], this molecule showed a Kd of 121 nM, a koff of 0.00866 s⁻¹ and an association rate constant (kon) of 71800 M⁻¹ s⁻¹.

B4: hIL10Rb_VHH1-hIL10Ra_VHH9-biotin (bispecific antibody)
chain: QVQLQESGGGSVQAGGSLRLSCAASGYTYSSGCMGWFRQAPGKEREAVAAINSDGSTSYADSVKGRFTISKDNAKNTLYLQMNSLKPEDTAMYYCAAEPYCSGGYPRWSVAEFGYWGQGTQVTVSSGGGSQVQLQESGGGSVQAGGSLRLSCAVSGYAYSTYCMGWFRQAPGKEREGVAAIDSGGSTSYADSVKGRFTISKDNAKNTLYLRMNSLKPEDTAMYYCAAVPPPPDGGSCLFLGPEIKVSKADFRYWGQGTQVTVSS
modifications: conjugated to biotin (site not stated)
In assay [4], B4 yielded a Kd of 2.7 nM, a koff of 0.0018 s⁻¹ and an on-rate constant (kon) of 660000 M⁻¹ s⁻¹. Also, in assay [5], the affinity, expressed as Kd, was 1.1 nM; the off-rate (koff) was 0.00027 s⁻¹; the kon is 250000 M⁻¹ s⁻¹. The Activity in assay [6] is 25%.

B5: hIL-10Rb_VHH27 Mono-Fc (Fc fusion)
chain: QVQLQESGGGSVQTGGSLRLSCAASGYTYLRGCMGWFRQAPGKEREGVAVMDVVGDRRSYIDSVKGRFTISRDNAANSVYLQMDNLKPEDTAMYYCTAGPNCVGWRSGLDYWGQGTQVTVSS
notes: as for B1
Consider B5, for which, in assay [1], the “Surface Activity” value is 24%. Further, in assay [2], binding was put at a Kd of 2.4 nM, the off-rate constant (koff) turned out to be 0.0254 s⁻¹ and the on-rate constant (kon) amounted to 1.07e+07 M⁻¹ s⁻¹.

B6: hIL-10Rb_VHH3 Mono-Fc (Fc fusion)
chain: QVQLQESGGGSVQAGGSLRLSCAASRYTYNSYCMGWFRQAPGKEREGVATIDSDGMTRYADSVKGRFTISKDNAKNTLYLQMNSLKPEDTAMYYCAADADCTIAAMTTNPLGQGTQVTVSS
notes: as for B1
Turning to B6, the “Surface Activity” value in assay [1] was 52%. Further, in assay [2], the dissociation constant Kd is 231 nM, the koff came out at 0.0214 s⁻¹ and the kon was determined as 92900 M⁻¹ s⁻¹.

B7: hIL10Ra_VHH17-hIL10Rb_VHH16 biotin (bispecific antibody)
chain: QVQLQESGGGSVQAGGSLRLSCAASGYSNCSYDMTWYRQAPGKEREFVSAIHSDGSTRYADSVKGRFFISQDNAKNTVYLQMNSLKPEDTAMYYCKTDPLHCRAHGGSWYSVRANYWGQGTQVTVSSGGGSQVQLQESGGGSVEAGGSLRLSCAASGYTHSSYCMGWFRQAPGKEREGVAAIDVDGSTTYADSVKGRFTISKDNAKNTLYLQMNSLKPEDTGMYYCAAEFADCSSNYFLPPGAVRYWGQGTQVTVSS
modifications: conjugated to biotin (site not stated)
Regarding B7, the Kd in assay [7] is less than 5 nM. In addition, in assay [4], binding was put at a Kd of 2.9 nM, the koff was 0.00045 s⁻¹ and the kon came to 160000 M⁻¹ s⁻¹. The Activity in assay [6] is 34%.

B8: hIL-10Rb_VHH1 Mono-Fc (Fc fusion)
chain: QVQLQESGGGSVQAGGSLRLSCAASGYTYSSGCMGWFRQAPGKEREAVAAINSDGSTSYADSVKGRFTISKDNAKNTLYLQMNSLKPEDTAMYYCAAEPYCSGGYPRWSVAEFGYWGQGTQVTVSS
notes: as for B1
As to B8, the “Surface Activity” value in assay [1] is 82%. Besides, in assay [2], the dissociation constant (Kd) came out at 8.3 nM, the koff was 0.00144 s⁻¹ and the on-rate (kon) stood at 175000 M⁻¹ s⁻¹.

B9: hIL-10Rb_VHH12 Mono-Fc (Fc fusion)
chain: QVQLQESGGGSVQAGGSLRLSCAASGYTYSSYCMGWFRQAPGKEREGVAHIDSDGSTSYADSVKGRFTISKDNAKNTLYLQMNSLKPEDTAMYYCAADPIPGPGYCDGGPNKYWGQGTQVTVSS
notes: as for B1
Take B9: the “Surface Activity” value in assay [1] is 67%. Besides, in assay [2], the Kd came out at 12.9 nM, the off-rate constant (koff) is 0.00143 s⁻¹ and the kon was 111000 M⁻¹ s⁻¹.

B10: hIL10Rb_VHH12-hIL10Ra_VHH8 biotin (bispecific antibody)
chain: QVQLQESGGGSVQAGGSLRLSCAASGYTYSSYCMGWFRQAPGKEREGVAHIDSDGSTSYADSVKGRFTISKDNAKNTLYLQMNSLKPEDTAMYYCAADPIPGPGYCDGGPNKYWGQGTQVTVSSGGGSQVQLQESGGGSVQAGGSLRLSCAASGYTYSMYCMGWFRQAPGKEREGVAQINSDGSTSYADSVKGRFTISKDNAKNTLYLQMNSLKPEDTAMYYCAADSRVYGGSWYERLCGPYTYEYNYWGQGTQVTVSS
modifications: conjugated to biotin (site not stated)
Regarding B10, in assay [4], the dissociation constant (Kd) worked out at 1.5 nM, the koff amounted to 0.00068 s⁻¹ and the on-rate (kon) is 440000 M⁻¹ s⁻¹. In assay [5], this molecule had a dissociation constant (Kd) of 0.35 nM, a koff of 6.5e-05 s⁻¹ and a kon of 180000 M⁻¹ s⁻¹. Also, the Activity in assay [6] was 42%.

B11: hIL10Ra_VHH12-hIL10Rb_VHH27 biotin (bispecific antibody)
chain: QVQLQESGGGSVQAGGSLRLSCTVSGYTYSSNCMGWFRQAPGKEREGVATIYTGGGNTYYADSVKGRFTISQDNAKNTVYLQMNNLKPEDTAMYYCAAEPLSRVYGGSCPTPTFDYWGQGTQVTVSSGGGSQVQLQESGGGSVQTGGSLRLSCAASGYTYLRGCMGWFRQAPGKEREGVAVMDVVGDRRSYIDSVKGRFTISRDNAANSVYLQMDNLKPEDTAMYYCTAGPNCVGWRSGLDYWGQGTQVTVSS
modifications: conjugated to biotin (site not stated)
notes: also called IL10 VHH DR509 biotin; DR509
Consider B11, for which, in assay [4], the dissociation constant Kd turned out to be 1.9 nM, the koff came to 0.003 s⁻¹ and the kon came to 1.6e+06 M⁻¹ s⁻¹. Further, in assay [5], the Kd was 0.2 nM, the koff is 0.00013 s⁻¹ and the kon was found to be 490000 M⁻¹ s⁻¹. In assay [6], the Activity was 85%.
